Data from patent publication US20220204580A1 (AstraZeneca / MedImmune, published 2022).
Numbered stars: 1 amine (or outer) side, 2 acyl side, 3 side chain; on linkers, the order of the positions; unused ones are H or OH. Bridge positions count the residues as written; N and C are the ends. Square brackets hold non-standard residues; d marks the D form. Side chains are listed from the residue outwards. Ends that are not written are not given here. * marks the point of attachment. C18 diacid = O=C(O)CCCCCCCCCCCCCCCCC(=O)*; γGlu = O=C(O)[C@H](CCC(=O)[*:2])N[*:1]; αMeF = C[C@](N)(Cc1ccccc1)C(=O)O; Dab = NCC[C@H](N)C(=O)O; Aib = CC(C)(N)C(=O)O

T1: human amylin receptor (calcitonin receptor co-expressed with receptor activity modifying protein, RAMP3) (human, UniProt P30988 25-474; O60896 24-148)
T1 sequence (looked up) 1: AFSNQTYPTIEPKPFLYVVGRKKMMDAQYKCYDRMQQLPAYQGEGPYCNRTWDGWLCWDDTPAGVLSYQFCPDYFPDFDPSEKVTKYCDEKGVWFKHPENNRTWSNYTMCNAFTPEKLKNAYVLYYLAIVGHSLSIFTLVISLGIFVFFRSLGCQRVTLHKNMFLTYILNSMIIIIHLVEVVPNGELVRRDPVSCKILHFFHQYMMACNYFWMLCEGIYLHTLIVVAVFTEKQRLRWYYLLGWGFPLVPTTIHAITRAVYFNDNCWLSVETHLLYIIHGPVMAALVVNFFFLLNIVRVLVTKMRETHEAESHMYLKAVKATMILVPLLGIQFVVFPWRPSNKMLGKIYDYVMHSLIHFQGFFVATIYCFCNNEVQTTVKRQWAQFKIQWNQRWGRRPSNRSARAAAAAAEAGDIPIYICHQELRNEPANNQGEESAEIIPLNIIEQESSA
T1 sequence (looked up) 2: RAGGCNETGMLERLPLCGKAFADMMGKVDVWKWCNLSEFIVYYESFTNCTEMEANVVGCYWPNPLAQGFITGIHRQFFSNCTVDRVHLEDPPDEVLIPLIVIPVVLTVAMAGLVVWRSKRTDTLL

T2: human calcitonin receptor (human, UniProt P30988 25-474)
T2 sequence (looked up): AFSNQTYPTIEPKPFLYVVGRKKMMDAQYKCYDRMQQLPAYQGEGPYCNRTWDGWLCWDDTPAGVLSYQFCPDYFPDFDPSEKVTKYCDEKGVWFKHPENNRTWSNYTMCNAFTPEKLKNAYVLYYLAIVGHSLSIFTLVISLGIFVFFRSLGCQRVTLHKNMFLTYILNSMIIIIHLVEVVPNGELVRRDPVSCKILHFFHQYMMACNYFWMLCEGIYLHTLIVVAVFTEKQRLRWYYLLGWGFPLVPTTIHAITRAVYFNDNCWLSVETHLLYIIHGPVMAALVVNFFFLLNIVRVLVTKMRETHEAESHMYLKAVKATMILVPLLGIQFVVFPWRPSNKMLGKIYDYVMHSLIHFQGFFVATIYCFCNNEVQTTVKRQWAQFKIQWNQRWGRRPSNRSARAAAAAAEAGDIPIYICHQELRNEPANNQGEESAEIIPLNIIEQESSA


Columns and labels:
[1] = biological target: T1, human amylin receptor (calcitonin …); test: cell-based or functional assay
[2] = biological target: T2, human calcitonin receptor; test: cell-based or functional assay

EC50 (cAMP production) [1] [pM] | Ratio (EC50 hCTR / EC50 hAMYR3) [1] | EC50 (cAMP production) [2] [pM] | Binder
134 | 5 | 731 | K([γGlu-γGlu-C18 diacid])CNIATCATQRLANFLVHSS[Dab]NFGPILPPTNVGSRTY-NH2 (disulfide 2-7; N-terminus assumed; SMILES CC[C@H](C)[C@@H]1NC(=O)[C@H](CC(N)=O)NC(=O)[C@@H](NC(=O)[C@@H](N)CCCCNC(=O)CC[C@H](NC(=O)CC[C@H](NC(=O)CCCCCCCCCCCCCCCCC(=O)O)C(=O)O)C(=O)O)CSSC[C@@H](C(=O)N[C@@H](C)C(=O)N[C@H](C(=O)N[C@@H](CCC(N)=O)C(=O)N[C@@H](CCCNC(=N)N)C(=O)N[C@@H](CC(C)C)C(=O)N[C@@H](C)C(=O)N[C@@H](CC(N)=O)C(=O)N[C@@H](Cc2ccccc2)C(=O)N[C@@H](CC(C)C)C(=O)N[C@H](C(=O)N[C@@H](Cc2c[nH]cn2)C(=O)N[C@@H](CO)C(=O)N[C@@H](CO)C(=O)N[C@@H](CCN)C(=O)N[C@@H](CC(N)=O)C(=O)N[C@@H](Cc2ccccc2)C(=O)NCC(=O)N2CCC[C@H]2C(=O)N[C@H](C(=O)N[C@@H](CC(C)C)C(=O)N2CCC[C@H]2C(=O)N2CCC[C@H]2C(=O)N[C@H](C(=O)N[C@@H](CC(N)=O)C(=O)N[C@H](C(=O)NCC(=O)N[C@@H](CO)C(=O)N[C@@H](CCCNC(=N)N)C(=O)N[C@H](C(=O)N[C@@H](Cc2ccc(O)cc2)C(N)=O)[C@@H](C)O)C(C)C)[C@@H](C)O)[C@@H](C)CC)C(C)C)[C@@H](C)O)NC(=O)[C@H]([C@@H](C)O)NC(=O)[C@H](C)NC1=O) [Peptide 27 (SEQ ID NO: 27)]
105 | 12 | 1250 | K([γGlu-C18 diacid])CNTATCATQRLANFLVHSSNN[αMeF]GPILPPTRVGSNTY-NH2 (disulfide 2-7; N-terminus assumed; SMILES CC[C@H](C)[C@H](NC(=O)[C@@H]1CCCN1C(=O)CNC(=O)[C@](C)(Cc1ccccc1)NC(=O)[C@H](CC(N)=O)NC(=O)[C@H](CC(N)=O)NC(=O)[C@H](CO)NC(=O)[C@H](CO)NC(=O)[C@H](Cc1c[nH]cn1)NC(=O)[C@@H](NC(=O)[C@H](CC(C)C)NC(=O)[C@H](Cc1ccccc1)NC(=O)[C@H](CC(N)=O)NC(=O)[C@H](C)NC(=O)[C@H](CC(C)C)NC(=O)[C@H](CCCNC(=N)N)NC(=O)[C@H](CCC(N)=O)NC(=O)[C@@H](NC(=O)[C@H](C)NC(=O)[C@@H]1CSSC[C@H](NC(=O)[C@@H](N)CCCCNC(=O)CC[C@H](NC(=O)CCCCCCCCCCCCCCCCC(=O)O)C(=O)O)C(=O)N[C@@H](CC(N)=O)C(=O)N[C@@H]([C@@H](C)O)C(=O)N[C@@H](C)C(=O)N[C@@H]([C@@H](C)O)C(=O)N1)[C@@H](C)O)C(C)C)C(=O)N[C@@H](CC(C)C)C(=O)N1CCC[C@H]1C(=O)N1CCC[C@H]1C(=O)N[C@H](C(=O)N[C@@H](CCCNC(=N)N)C(=O)N[C@H](C(=O)NCC(=O)N[C@@H](CO)C(=O)N[C@@H](CC(N)=O)C(=O)N[C@H](C(=O)N[C@@H](Cc1ccc(O)cc1)C(N)=O)[C@@H](C)O)C(C)C)[C@@H](C)O) [Peptide 25 (SEQ ID NO: 25)]
243 | 34 | 8210 | K([γGlu-C18 diacid])KCNTATCATQRLANFLVHSS[Dab]NFGPILPPTNVGSNTY-NH2 (disulfide 3-8; N-terminus assumed; SMILES CC[C@H](C)[C@H](NC(=O)[C@@H]1CCCN1C(=O)CNC(=O)[C@H](Cc1ccccc1)NC(=O)[C@H](CC(N)=O)NC(=O)[C@H](CCN)NC(=O)[C@H](CO)NC(=O)[C@H](CO)NC(=O)[C@H](Cc1c[nH]cn1)NC(=O)[C@@H](NC(=O)[C@H](CC(C)C)NC(=O)[C@H](Cc1ccccc1)NC(=O)[C@H](CC(N)=O)NC(=O)[C@H](C)NC(=O)[C@H](CC(C)C)NC(=O)[C@H](CCCNC(=N)N)NC(=O)[C@H](CCC(N)=O)NC(=O)[C@@H](NC(=O)[C@H](C)NC(=O)[C@@H]1CSSC[C@H](NC(=O)[C@H](CCCCN)NC(=O)[C@@H](N)CCCCNC(=O)CC[C@H](NC(=O)CCCCCCCCCCCCCCCCC(=O)O)C(=O)O)C(=O)N[C@@H](CC(N)=O)C(=O)N[C@@H]([C@@H](C)O)C(=O)N[C@@H](C)C(=O)N[C@@H]([C@@H](C)O)C(=O)N1)[C@@H](C)O)C(C)C)C(=O)N[C@@H](CC(C)C)C(=O)N1CCC[C@H]1C(=O)N1CCC[C@H]1C(=O)N[C@H](C(=O)N[C@@H](CC(N)=O)C(=O)N[C@H](C(=O)NCC(=O)N[C@@H](CO)C(=O)N[C@@H](CC(N)=O)C(=O)N[C@H](C(=O)N[C@@H](Cc1ccc(O)cc1)C(N)=O)[C@@H](C)O)C(C)C)[C@@H](C)O) [Peptide 29 (SEQ ID NO: 29)]
390 | 23 | 9140 | K([γGlu-C18 diacid])KCNTATCATQRLANFLVHSS[Dab]NFGPILPPTEVGSNTY-NH2 (disulfide 3-8; N-terminus assumed; SMILES CC[C@H](C)[C@H](NC(=O)[C@@H]1CCCN1C(=O)CNC(=O)[C@H](Cc1ccccc1)NC(=O)[C@H](CC(N)=O)NC(=O)[C@H](CCN)NC(=O)[C@H](CO)NC(=O)[C@H](CO)NC(=O)[C@H](Cc1c[nH]cn1)NC(=O)[C@@H](NC(=O)[C@H](CC(C)C)NC(=O)[C@H](Cc1ccccc1)NC(=O)[C@H](CC(N)=O)NC(=O)[C@H](C)NC(=O)[C@H](CC(C)C)NC(=O)[C@H](CCCNC(=N)N)NC(=O)[C@H](CCC(N)=O)NC(=O)[C@@H](NC(=O)[C@H](C)NC(=O)[C@@H]1CSSC[C@H](NC(=O)[C@H](CCCCN)NC(=O)[C@@H](N)CCCCNC(=O)CC[C@H](NC(=O)CCCCCCCCCCCCCCCCC(=O)O)C(=O)O)C(=O)N[C@@H](CC(N)=O)C(=O)N[C@@H]([C@@H](C)O)C(=O)N[C@@H](C)C(=O)N[C@@H]([C@@H](C)O)C(=O)N1)[C@@H](C)O)C(C)C)C(=O)N[C@@H](CC(C)C)C(=O)N1CCC[C@H]1C(=O)N1CCC[C@H]1C(=O)N[C@H](C(=O)N[C@@H](CCC(=O)O)C(=O)N[C@H](C(=O)NCC(=O)N[C@@H](CO)C(=O)N[C@@H](CC(N)=O)C(=O)N[C@H](C(=O)N[C@@H](Cc1ccc(O)cc1)C(N)=O)[C@@H](C)O)C(C)C)[C@@H](C)O) [Peptide 28 (SEQ ID NO: 28)]
873 | 12 | 10500 | K([γGlu-C18 diacid])KCNTATCATQRLANFL[Aib]HSS[Dab]NFGPILPPTEVGSNTY-NH2 (disulfide 3-8; N-terminus assumed; SMILES CC[C@H](C)[C@H](NC(=O)[C@@H]1CCCN1C(=O)CNC(=O)[C@H](Cc1ccccc1)NC(=O)[C@H](CC(N)=O)NC(=O)[C@H](CCN)NC(=O)[C@H](CO)NC(=O)[C@H](CO)NC(=O)[C@H](Cc1c[nH]cn1)NC(=O)C(C)(C)NC(=O)[C@H](CC(C)C)NC(=O)[C@H](Cc1ccccc1)NC(=O)[C@H](CC(N)=O)NC(=O)[C@H](C)NC(=O)[C@H](CC(C)C)NC(=O)[C@H](CCCNC(=N)N)NC(=O)[C@H](CCC(N)=O)NC(=O)[C@@H](NC(=O)[C@H](C)NC(=O)[C@@H]1CSSC[C@H](NC(=O)[C@H](CCCCN)NC(=O)[C@@H](N)CCCCNC(=O)CC[C@H](NC(=O)CCCCCCCCCCCCCCCCC(=O)O)C(=O)O)C(=O)N[C@@H](CC(N)=O)C(=O)N[C@@H]([C@@H](C)O)C(=O)N[C@@H](C)C(=O)N[C@@H]([C@@H](C)O)C(=O)N1)[C@@H](C)O)C(=O)N[C@@H](CC(C)C)C(=O)N1CCC[C@H]1C(=O)N1CCC[C@H]1C(=O)N[C@H](C(=O)N[C@@H](CCC(=O)O)C(=O)N[C@H](C(=O)NCC(=O)N[C@@H](CO)C(=O)N[C@@H](CC(N)=O)C(=O)N[C@H](C(=O)N[C@@H](Cc1ccc(O)cc1)C(N)=O)[C@@H](C)O)C(C)C)[C@@H](C)O) [Peptide 30 (SEQ ID NO: 30)]
409 | 7 | 2800 | K([γGlu-γGlu-C18 diacid])CNTATCATQRLANFL[Aib]HSSNN[αMeF]GPILPPTNVGSNTY-NH2 (disulfide 2-7; N-terminus assumed; SMILES CC[C@H](C)[C@H](NC(=O)[C@@H]1CCCN1C(=O)CNC(=O)[C@](C)(Cc1ccccc1)NC(=O)[C@H](CC(N)=O)NC(=O)[C@H](CC(N)=O)NC(=O)[C@H](CO)NC(=O)[C@H](CO)NC(=O)[C@H](Cc1c[nH]cn1)NC(=O)C(C)(C)NC(=O)[C@H](CC(C)C)NC(=O)[C@H](Cc1ccccc1)NC(=O)[C@H](CC(N)=O)NC(=O)[C@H](C)NC(=O)[C@H](CC(C)C)NC(=O)[C@H](CCCNC(=N)N)NC(=O)[C@H](CCC(N)=O)NC(=O)[C@@H](NC(=O)[C@H](C)NC(=O)[C@@H]1CSSC[C@H](NC(=O)[C@@H](N)CCCCNC(=O)CC[C@H](NC(=O)CC[C@H](NC(=O)CCCCCCCCCCCCCCCCC(=O)O)C(=O)O)C(=O)O)C(=O)N[C@@H](CC(N)=O)C(=O)N[C@@H]([C@@H](C)O)C(=O)N[C@@H](C)C(=O)N[C@@H]([C@@H](C)O)C(=O)N1)[C@@H](C)O)C(=O)N[C@@H](CC(C)C)C(=O)N1CCC[C@H]1C(=O)N1CCC[C@H]1C(=O)N[C@H](C(=O)N[C@@H](CC(N)=O)C(=O)N[C@H](C(=O)NCC(=O)N[C@@H](CO)C(=O)N[C@@H](CC(N)=O)C(=O)N[C@H](C(=O)N[C@@H](Cc1ccc(O)cc1)C(N)=O)[C@@H](C)O)C(C)C)[C@@H](C)O) [Peptide 26 (SEQ ID NO: 26)]
